Test results as given in paper PMC10491584, “Structural convergence endows nuclear transport receptor Kap114p with a transcriptional repressor function toward TATA-binding protein” (Nature Communications, 2023).

T1: Kap95p (S. cerevisiae, UniProt Q06142 1-861)
T1 construct: Kap95p, S. cerevisiae, full length; The purification paragraph is headed for Kap114p proteins; that Kap95p was treated alike is surmised; source: E. coli, GST-tagged construct in modified pGEX6p1; purification told for the GST-tagged proteins; not shown: GST, N-terminal, cleaved
T1 sequence (looked up): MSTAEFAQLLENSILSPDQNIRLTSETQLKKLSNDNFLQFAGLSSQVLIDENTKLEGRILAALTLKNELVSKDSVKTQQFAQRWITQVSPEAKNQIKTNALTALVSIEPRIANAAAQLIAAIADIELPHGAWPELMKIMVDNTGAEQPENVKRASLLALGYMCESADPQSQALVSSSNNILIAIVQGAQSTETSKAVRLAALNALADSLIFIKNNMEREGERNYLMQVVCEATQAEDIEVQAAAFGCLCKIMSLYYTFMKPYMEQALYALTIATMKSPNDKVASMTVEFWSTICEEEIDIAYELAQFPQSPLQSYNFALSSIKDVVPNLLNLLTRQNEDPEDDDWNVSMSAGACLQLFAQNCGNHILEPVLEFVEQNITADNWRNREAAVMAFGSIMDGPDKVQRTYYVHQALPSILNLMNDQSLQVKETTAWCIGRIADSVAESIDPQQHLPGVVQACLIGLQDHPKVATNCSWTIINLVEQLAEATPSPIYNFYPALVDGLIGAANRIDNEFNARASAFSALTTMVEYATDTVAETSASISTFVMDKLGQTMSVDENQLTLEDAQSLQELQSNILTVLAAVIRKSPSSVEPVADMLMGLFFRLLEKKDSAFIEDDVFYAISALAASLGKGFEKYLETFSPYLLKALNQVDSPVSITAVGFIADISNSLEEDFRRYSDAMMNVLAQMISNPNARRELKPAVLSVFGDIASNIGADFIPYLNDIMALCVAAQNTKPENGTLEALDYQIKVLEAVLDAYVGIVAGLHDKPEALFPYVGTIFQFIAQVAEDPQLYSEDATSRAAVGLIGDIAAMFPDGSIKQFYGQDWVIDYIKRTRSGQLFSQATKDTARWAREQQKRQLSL

T2: Kap114p (wild type) (S. cerevisiae, UniProt P53067 1-1004)
T2 construct: Kap114p, S. cerevisiae, full length, amplified from total genomic DNA; GST tag removed with PreScission protease; also called karyopherin-β Kap114p; source: E. coli Rosetta, purified (GST resin, MonoQ, Superdex 200); not shown: GST, N-terminal, cleaved
T2 sequence (looked up): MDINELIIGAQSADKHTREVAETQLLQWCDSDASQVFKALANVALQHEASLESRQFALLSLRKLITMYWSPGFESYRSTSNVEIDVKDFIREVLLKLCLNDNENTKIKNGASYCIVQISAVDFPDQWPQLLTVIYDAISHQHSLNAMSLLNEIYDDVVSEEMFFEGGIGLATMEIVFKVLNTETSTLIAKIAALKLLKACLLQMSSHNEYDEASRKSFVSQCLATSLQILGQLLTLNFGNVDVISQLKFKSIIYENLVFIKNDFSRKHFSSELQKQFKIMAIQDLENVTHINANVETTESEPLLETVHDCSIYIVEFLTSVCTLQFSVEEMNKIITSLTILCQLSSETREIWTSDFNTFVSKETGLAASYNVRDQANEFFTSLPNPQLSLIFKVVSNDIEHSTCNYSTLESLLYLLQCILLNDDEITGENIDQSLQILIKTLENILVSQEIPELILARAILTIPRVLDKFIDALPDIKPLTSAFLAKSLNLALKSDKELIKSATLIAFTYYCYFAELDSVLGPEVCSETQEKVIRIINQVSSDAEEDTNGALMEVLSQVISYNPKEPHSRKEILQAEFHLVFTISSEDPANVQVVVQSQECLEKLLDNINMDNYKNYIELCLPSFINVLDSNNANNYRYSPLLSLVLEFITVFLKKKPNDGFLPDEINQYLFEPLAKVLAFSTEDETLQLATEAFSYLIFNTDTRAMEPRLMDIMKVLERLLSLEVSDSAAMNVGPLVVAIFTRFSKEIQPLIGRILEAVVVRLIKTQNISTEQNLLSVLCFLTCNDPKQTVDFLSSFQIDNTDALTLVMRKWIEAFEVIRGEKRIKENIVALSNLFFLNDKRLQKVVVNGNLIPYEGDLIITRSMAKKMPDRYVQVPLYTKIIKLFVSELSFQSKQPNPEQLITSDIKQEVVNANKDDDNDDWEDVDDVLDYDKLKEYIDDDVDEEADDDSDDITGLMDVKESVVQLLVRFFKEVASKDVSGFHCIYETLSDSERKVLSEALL

T3: Kap114p wild type (S. cerevisiae, UniProt P53067 1-1004)
T3 construct: Kap114p (karyopherin-β), S. cerevisiae, full length, amplified from total genomic DNA; GST tag followed by a PreScission site (modified pGEX6p1); PreScission protease added during dialysis; also called Kap114p WT; GST-Kap114p (plasmid pGEX-6P-1-Kap114); source: E. coli Rosetta, purified (GST resin, MonoQ, Superdex 200)
T3 sequence (looked up): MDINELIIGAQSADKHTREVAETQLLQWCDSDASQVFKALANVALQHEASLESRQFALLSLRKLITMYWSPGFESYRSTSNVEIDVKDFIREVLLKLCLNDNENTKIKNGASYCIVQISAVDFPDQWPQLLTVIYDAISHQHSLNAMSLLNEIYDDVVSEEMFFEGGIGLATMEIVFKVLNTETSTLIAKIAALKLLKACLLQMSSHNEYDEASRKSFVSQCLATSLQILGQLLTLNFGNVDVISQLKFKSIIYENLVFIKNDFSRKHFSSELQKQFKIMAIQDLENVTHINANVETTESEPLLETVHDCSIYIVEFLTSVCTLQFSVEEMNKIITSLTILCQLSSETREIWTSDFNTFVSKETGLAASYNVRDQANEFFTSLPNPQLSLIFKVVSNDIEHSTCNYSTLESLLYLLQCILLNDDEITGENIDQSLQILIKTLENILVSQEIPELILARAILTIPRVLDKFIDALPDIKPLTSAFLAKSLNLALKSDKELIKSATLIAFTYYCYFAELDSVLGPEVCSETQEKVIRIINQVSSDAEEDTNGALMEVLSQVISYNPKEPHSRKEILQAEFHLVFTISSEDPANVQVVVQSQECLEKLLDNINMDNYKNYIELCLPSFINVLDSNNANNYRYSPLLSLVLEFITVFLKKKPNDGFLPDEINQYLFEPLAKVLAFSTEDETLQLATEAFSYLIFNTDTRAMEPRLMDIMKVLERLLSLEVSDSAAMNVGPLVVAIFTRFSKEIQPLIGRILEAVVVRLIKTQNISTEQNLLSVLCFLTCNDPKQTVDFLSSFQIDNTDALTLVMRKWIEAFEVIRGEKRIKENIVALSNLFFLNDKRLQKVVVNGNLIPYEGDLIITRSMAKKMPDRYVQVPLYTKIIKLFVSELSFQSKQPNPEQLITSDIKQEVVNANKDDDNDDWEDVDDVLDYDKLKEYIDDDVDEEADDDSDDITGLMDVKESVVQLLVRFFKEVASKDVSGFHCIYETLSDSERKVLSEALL

T4: Kap114p (Y370A) (S. cerevisiae, UniProt P53067 1-1004, Y370A)
T4 construct: Kap114p, S. cerevisiae, full length with Y370A; also called GST-Kap114p (Y370A); source: E. coli Rosetta, purified (GST resin, MonoQ, Superdex 200)
T4 sequence (looked up): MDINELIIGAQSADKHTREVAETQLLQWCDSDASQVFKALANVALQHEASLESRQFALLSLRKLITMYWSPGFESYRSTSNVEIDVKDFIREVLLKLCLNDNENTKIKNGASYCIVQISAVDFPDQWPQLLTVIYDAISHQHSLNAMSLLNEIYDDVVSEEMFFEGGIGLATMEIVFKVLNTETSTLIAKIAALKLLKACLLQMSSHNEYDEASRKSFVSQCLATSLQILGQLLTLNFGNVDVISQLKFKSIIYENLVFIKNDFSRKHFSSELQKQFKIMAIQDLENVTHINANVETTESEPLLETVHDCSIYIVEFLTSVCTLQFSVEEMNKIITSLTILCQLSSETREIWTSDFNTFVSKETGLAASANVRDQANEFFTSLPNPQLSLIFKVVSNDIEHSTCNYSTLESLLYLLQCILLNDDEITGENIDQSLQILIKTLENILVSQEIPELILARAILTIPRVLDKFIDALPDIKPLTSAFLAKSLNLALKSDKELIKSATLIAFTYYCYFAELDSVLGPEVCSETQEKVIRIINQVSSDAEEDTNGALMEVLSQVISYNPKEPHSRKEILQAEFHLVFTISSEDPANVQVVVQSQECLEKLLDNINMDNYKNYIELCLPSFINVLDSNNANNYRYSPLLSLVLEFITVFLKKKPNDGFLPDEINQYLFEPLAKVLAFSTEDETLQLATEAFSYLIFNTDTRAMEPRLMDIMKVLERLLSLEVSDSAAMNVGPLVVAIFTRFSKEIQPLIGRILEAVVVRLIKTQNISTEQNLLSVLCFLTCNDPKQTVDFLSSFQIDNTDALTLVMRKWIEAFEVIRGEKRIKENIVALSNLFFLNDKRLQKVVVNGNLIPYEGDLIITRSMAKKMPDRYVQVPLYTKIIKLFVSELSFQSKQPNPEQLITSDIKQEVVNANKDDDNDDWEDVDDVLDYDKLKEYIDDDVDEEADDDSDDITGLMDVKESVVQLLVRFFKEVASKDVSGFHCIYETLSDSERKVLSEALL


What was measured:
Conditions in all cases: both partners purified
[1] = biological target: T1, Kap95p; experiment: ITC; Kap95p with wild type or R141A yTBP^C; which protein was in the cell is not told for Kap95p; n = 3
[2] = biological target: T2, Kap114p (wild type); experiment: ITC; MicroCal iTC200, 25 °C, 20 mM HEPES pH 7.4, 150 mM NaCl; 25 or 50 μM wild type or mutant Kap114p in the cell, 250 or 500 μM wild-type or mutant yTBP^C in the syringe; triplicate
[3] = biological target: T3, Kap114p wild type; experiment: ITC; MicroCal iTC200, 25 °C, 20 mM HEPES pH 7.4, 150 mM NaCl; high concentration: 50 µM wild type or mutant Kap114p in the sample cell, 500 µM wild type or mutant yTBPC in the syringe; triplicate
[4] = biological target: T4, Kap114p (Y370A); experiment: ITC; MicroCal iTC200, 25 °C, 20 mM HEPES pH 7.4, 150 mM NaCl; low concentration: 25 µM wild type or mutant Kap114p in the sample cell, 250 µM wild type or mutant yTBPC in the syringe; triplicate

Row | Kd [1] [nM] | fold reduction of the binding affinity against wild type yTBP^C [2] [fold] | Kd [3] [nM] | Kd [4] [nM] | Binder
1 | ~9700 | > 200 |  |  | yTBP^C (R141A) (domain or fragment, S. cerevisiae, UniProt P13393 61-240, looked up, 61-240, point mutant R141A; also called yTBP(R141A); source: E. coli Rosetta, purified (Ni-NTA, HiTrap SP, Superdex 75); not shown: His6, N-terminal, cleaved) SGIVPTLQNIVATVTLGCRLDLKTVALHARNAEYNPKRFAAVIMRIREPKTTALIFASGKMVVTGAKSEDDSKLASRKYAAIIQKIGFAAKFTDFKIQNIVGSCDVKFPIRLEGLAFSHGTFSSYEPELFPGLIYRMVKPKIVLLIFVSGKIVLTGAKQREEIYQAFEAIYPVLSEFRKM
2 |  |  | 28.9 | 938 | yTBP^C (N91A) (domain or fragment, S. cerevisiae, UniProt P13393 61-240, looked up, also called yTBP(N91A); His-yTBP (61-240) (N91A); source: E. coli Rosetta, purified (Ni-NTA, HiTrap SP, Superdex 75); not shown: His6, N-terminal, cleaved) SGIVPTLQNIVATVTLGCRLDLKTVALHARAAEYNPKRFAAVIMRIREPKTTALIFASGKMVVTGAKSEDDSKLASRKYARIIQKIGFAAKFTDFKIQNIVGSCDVKFPIRLEGLAFSHGTFSSYEPELFPGLIYRMVKPKIVLLIFVSGKIVLTGAKQREEIYQAFEAIYPVLSEFRKM
